Publication PMC13080021
Like-named read-outs stand apart in the source and are kept apart here.

Tests used:
[1] = biological target: eGFP-tagged measles virus C protein, full length (human measles virus) (UniProt P03424); test: MST
[2] = biological target: eGFP-tagged measles virus C protein, full length (human measles virus) (UniProt P03424); test: MST; remark: listed apart in the source
[3] = biological target: measles virus (MeV) phosphoprotein (P), optimized construct (human measles virus) (UniProt P03422); test: cryo-EM structure

Substance | Kd [1] [µM] | Kd [2] [µM] | stoichiometry N [3]
measles virus (MeV) N protein, monomeric (N_ΔN-arm) (domain or fragment) | 3.92 | 4.57 | 
measles virus (MeV) phosphoprotein (P), optimized construct (from UniProt P03422 1-507) (natural protein) |  |  | 4
